Experimental data from US20150202273A1 (SHENZHEN INNOVATION IMMUNOTECHNOLOGY, published 2015).

Target: HLA-A2 molecules on T2 cells (human)
Test: cell-based or functional assay

IFN-γ release (ELISA) by expanded peptide-specific T cells in response to T2 cells pre-loaded with titrated peptide (0-20 µg/ml) [µg/mL] | Binder
5 | ILANIYLLV [PSGR3]
5 | VILANIYLLV [PSGR14]
5 | WLAFPLCSL [PSGR4]
